Experimental data: patent US20170298425

Protein	Hill coefficient (fit of CD melting curve at 222 nm, 25-50 C)
TlpA-CC WT (TlpA coiled-coil domain, wild type) (protein) MRPATYEPEQIIEAGLALQAEGRNITGFALRNQVGGGNPTRLRQIWDEYQASQSTVVTEPVAELPVEVAEEVKAVSAALSERITQLATELNDKAVRAAERRVAEVTRAAGEQTAQAERELADAAQTVDDLEEKLDELQDRYDSLTLALESERSLRQQHDVEMAQLKERLAAAEENTRQREERYQEQKTVLQDALNAEQAQHKNTREDLQKRLEQISAEANARTEELKSERDKVNTLLTRLESQENALASERQQHLATRETLQQRLEQAIADTQARAGEIALERDRVSSLTARLESQEKASSEQLVRMGSEIASLTERCTQLENQRDDARLETMGEKETVAALRGEAEALKRQNQSLMAALSGNKQTGGQNA	19.1
DED-TlpA-CC (TlpA coiled-coil domain with Asp-Glu-Asp appended to the N-terminus) (protein) DEDMRPATYEPEQIIEAGLALQAEGRNITGFALRNQVGGGNPTRLRQIWDEYQASQSTVVTEPVAELPVEVAEEVKAVSAALSERITQLATELNDKAVRAAERRVAEVTRAAGEQTAQAERELADAAQTVDDLEEKLDELQDRYDSLTLALESERSLRQQHDVEMAQLKERLAAAEENTRQREERYQEQKTVLQDALNAEQAQHKNTREDLQKRLEQISAEANARTEELKSERDKVNTLLTRLESQENALASERQQHLATRETLQQRLEQAIADTQARAGEIALERDRVSSLTARLESQEKASSEQLVRMGSEIASLTERCTQLENQRDDARLETMGEKETVAALRGEAEALKRQNQSLMAALSGNKQTGGQNA	24.7
TlpA-CC-DED (TlpA coiled-coil domain with Asp-Glu-Asp appended to the C-terminus) (protein) MRPATYEPEQIIEAGLALQAEGRNITGFALRNQVGGGNPTRLRQIWDEYQASQSTVVTEPVAELPVEVAEEVKAVSAALSERITQLATELNDKAVRAAERRVAEVTRAAGEQTAQAERELADAAQTVDDLEEKLDELQDRYDSLTLALESERSLRQQHDVEMAQLKERLAAAEENTRQREERYQEQKTVLQDALNAEQAQHKNTREDLQKRLEQISAEANARTEELKSERDKVNTLLTRLESQENALASERQQHLATRETLQQRLEQAIADTQARAGEIALERDRVSSLTARLESQEKASSEQLVRMGSEIASLTERCTQLENQRDDARLETMGEKETVAALRGEAEALKRQNQSLMAALSGNKQTGGQNADED	16.7
